The DeepSol protein solubility set

Experiment: soluble on expression in E. coli; label from the status in PepcDB or PDB records

| Sequence | soluble on expression in E. coli |
| --- | --- |
| MGNNQSGGPDARYGGPNDKAGLRRHRMMSETAKIAGQVLPNPDGGPPMIFDDGNEDKSGECPVVFRWSFTQNAQPRVVHIVGSWDNWQTRIPMVKSTNDFSTIIDLQPGQYEYKFQVDGSWVVDDNQGKAQDVHGNENNMINIQDSDFAVFEALDEDFQSSTAGEVLRGESESTKNHDTPNDRELEKLRSFTQEIPSMDMLRKAAGPPVIPPQLMQVLLNKETPESCDPNVLPEPNHVMLNHMYALSIKDSVMVLSSTQRYRKKFVTTLLYKPV | not soluble |
| MGNQLDRITHLNYSELPTGDPSGIEKDELRVGVAYFFSDEEEELDDRSQSDSFKDNNSPSKDGPVARNEIEYTAFCCQECIYSKLRENEDLNVYSVKTLLTMCKPGDLLELVANAQPPHWAIFEGEDQVIHLYKGEIRKDSLFEISCGRQARIVNNRYRYRPLPADLVMQNASGHVGLSSGEICWTNSESFAAWCRFGKREFKAGGEVHSVEQRYFLKVHLSESTAHTLMFRSLEEMIRERRRVDASGILKELSLVTGKE | not soluble |
| MGNTATEFDGPYVITPISGQSTAYWICDNRLKTTSIEKLQVNRPEHCGDLPETKLSSEIKQIMPDTYLGIKKVVALSDVHGQYDVLLTLLKKQKIIDSDGNWAFGEGHMVMTGDIFDRGHQVNEVLWFMYQLDQQARDAGGMVHLLMGNHEQMVLGGDLRYVHQRYDIATTLINRPYNKLYSADTEIGQWLRSKNTIIKINDVLYMHGGISSEWISRELTLDKANALYRANVDASKKSLKADDLLNFLFFGNGPTWYRGYFSETFTEAELDTILQHFNVNHIVVGHTSQERVLGLFHNKVIAVDSSIKVGKSGELLLLENNRLIRGLYDGTRETLQENSLNQ | soluble |
| MGPLCAVCESPTAFTLHFGGRCCKACAAFFRRTIALDLKYECAADDPCEIHFKFPGMRLVCRECRLRKCYSAGMRSELVRSKRENFACTRRKDSRNNSDAAPNSNSPSTRQSSSPEEMDDWSFQMFEEKPKIEDLPLTPSISHPPLPTQLMPEESSRTSSFDGGYCSSYPSSSAATHPSPPGMLYSIENNSILQYYHSMETGLCSKRRIMYTNTGMDFILDTHANLQCPFTVNDLRPHDYRNFRGMLRHDFVMLFDYATRFPEFNSFTSHEKNMFYRQIVAVDFILSSAYYTAKLGQAHRQMVLTNGEYLNMDPLPMSGNEIDARRYFDCDEDFSKYRALMPMHIAIWEESIVPFSKLNVTFEEFCLLKALTVWQATYFKLTENGREKCRRQRNIIIGFLSKMCHSPGGGGEHRVGELLMSMNYLRESAQKLTTSYVMLTVFNVLNCDSMLHEMLNFQY | not soluble |
| MGPMPKLADRKLCADQECSHPISMAVALQDYMAPDCRFLTIHRGQVVYVFSKLKGRGRLFWGGSVQGDYYGDLAARLGYFPSSIVREDQTLKPGKVDVKTDKWDFYCQ | soluble |
| MGQAPDRPHLETFLARLRAGAKILELGCGGGQDSEYMLSAGFDVHPTDGTPDIAKAAQARLGIPVRTLLFENIEDAALYDAVWANACLLHVPRLALPGIIGRIHTALKPGGVFYASFKAGEVEGRDTFGRYYNYPSKAWLEETYGQFAWTEVEIEARQGSGYDKLPTDWLHVTATKALEHHHHHH | not soluble |
| MGQLPPRARAFFAAQRPLRVLMPGCGSAADLPPLLAMGHDVLAVDFSEAAIELAARQWPEAAGRLLLADFFQLQMPAFDCLFERAFLCALPVGMRSQYAERVAALIAPGGALAGVFFVADTERGPPFGMQAEALRELLSPWFELEEDLALDESVAVFRNRERWMVWRRRGLEHHHHHH | not soluble |
| MGQMFNPPHPGETLREDVLPAFNLTVTEAANQLGVSRVTLSRVLNGTSAISPEMALRIEEWLGVENGGRADLWLGMQTSYDLWKARERVHQQPLSVRSVKHKSTEMALR | not soluble |
| MGQRSTPQQIPVVVLAGFLGSGKTTLLNHLLHRSGGSRIGAVVNDFGSIEIDAMAVAGALGDSTVSLGNGCLCCAVDASELDGYLARLARPEAGIDVIVIEASGLAEPQELVRMLLASEQPGIVYGGLVEVVDAAEFDDTRARHPEIDRHLALADLVVVNKTDRATDAERVLGLVHSLVGGAAVVPATYGRIDPEFLYDCRPGEERVGQLSFDDLHDHSEGGAHADHLHAAYDTLSFVSGLPLDPRRLMRFLDSRPKGLYRIKGYVDFGPYDTRNRYAVHAVGRFLRFYPEPWTPAGAAGGSGAPETGRTQLVLIGSGIDAAALGEELDACRRDADAPPADEHGMWGVLRYVADGEEPPDSPLEHHHHHH | not soluble |
| MGRNDSEFPSDEELKKLAGKIKGAAIRANTKILKSYDPDTYGNYLDQLDGIRSQAEWLGTAFDDFLKPSPWDFDDMLKALDEIASDLGQAVGETEIKNGIVQGRIDTTKQFLGEGGWKGALADSFKMDYLEPIGSHIAANQGAVTLVTHDGLQAMRDIYGKARENLKDLGEKAVTAFEQADGISASDLKTLLTVLSAAFGLGTAVLSAFAPAAAAGAGIASALVSGGIAVGSDKVGEDEESELAADYPDKVEENFKNALEKLKEQITTMEDELIKVLQKGTSDIASIVWGEKLDRLNGFSALFGMGNQSLLAPKVPDLSMVAFGDDPGKLKDGLVQVSG | not soluble |
| MGRRRGFLTMRIPRIYHPEPLTSHSHIALCEDAANHIGRVLRMGPGQALQLFDGSNQVFDAEITSASKKSVEVKVLEGQIDDRESPLHIHLGQVMSRGEKMEFTIQKSIELGVSLITPLFSERCGVKLDSERLNKKLQQWQKIAIAACEQCGRNRVPEIRPAMDLEAWCAEQDEGLKLNLHPRASNSINTLPLPVERVRLLIGPEGGLSADEIAMTARYQFTDILLGPRVLRTETTALTAITALQVRFGDLGLEHHHHHH | not soluble |
| MGRSATPEGDPARTMELLWGGGSTPISRPRNGKPGLTLDRIVETAVSVADAEGLDAVSMRRLASELGAGAMSLYTHVPGKTELVEVMLDRALSTLEPADDADEGWRERLAAAAHDYFHLLCAHPWMLGVVALSRPVLGPGGMAKYERELRAVEGLGLSDLDMDSVVTLLDSFVAGAARAAVDAAALAAQGEADSEWWQRVAPHFEKVFDPDRFPLAARVGASAGEHHDAAYVPAHAFEFGLTRLLDGVGALIVDGGTGGE | not soluble |
| MGRVLDRIEVVAEEIRGQAVQSEADCRLTDAAAGLLRDSGAIRLLQPRLYGGYEVHPREFAETVMGVAALDGASGWVTGIVGVHPWELAFADPQVQEEIWGEDNDTWMASPYAPMGVATPVDGGYVLKGRWSFSSGTDHCQWAFLGAMVGDGEGGIATPSSLHVILPRTDYQIVEDTWDVIGLRGTGSKDLIVDGAFVPGYRTLNAAKVMDGRAQKEAGRPEPLFNMPYSCMFPLGITAAVIGITEGALACHIAVQKDRVAITGQKIKEDPYVLSAIGESAAEINASRVSLIETADRFYDKVDAGKEITFEERAIGRRTQIAAAWRAVRAADEIFARAGGGALHYKTPMQRFWRDAHAGLAHAVHVPGPTNHASALTQLGGEPQGMMRAMI | soluble |
| MGRVYYGGVERTYLYRGRILNLALEGRYEIVEHKPAVAVIALREGRMLFVRQMRPAVGLAPLEIPAGLIEPGEDPLEAARRQLAEETGLSGDLTYLFSYFVSPGFTDEKTHVFLAENLKEVEAHPDEDEAIEVVWMRPEEALERHQRGEVEFSATGLVGVLYYHAFLRGR | soluble |
| MGSDKIHHHHHHAAGLVVNDNDLRNDLAWLSDRGVIHLSLSTWPLSQEEIARALKKAKPSYSSEQVVLARINQRLSALKADFRVTGYTSTDQPGTPQGFGQTQPADSSLGLAFNNSGEWWDVHLQGNVEGGERISNGSRFNANGAYGAVKFWNQWLSFGQIPQWWGPGYEGSLIRGDAMRPMTGFLMQRAEQAAPETWWLRWVGPWQYQISASQMNQYTAVPHAKIIGGRFTFSPFQSLELGASRIMQWGGEGRPESFSSFWDGFTGHDNTGTDNEPGNQLAGFDFKFKLEPTLGWPVSFYGQMVGEDESGYLPSANMFLGGVEGHHGWGKDAVNWYVEAHDTRTNMSRTNYSYTHHIYKDGYYQQGYPLGDAMGGDGQLIAGKVELITEDNQRWSTRLVYAKVNPENQSINKAFPHADTLKGVQLGWSGDVYQSVRLNTSLWYTNANNSDSDDVGASAGIEIPFSL | not soluble |
| MGSDKIHHHHHHAAGSSSSSGSSSPSATLTPKDSQATTVFTTTNPSLTLSKVPNIDFGSNATPNGSTDLSVQAAKVDSDLEVANDGIASGWNVQVMNSAFTDSATNNSLYGAKLSFAAAGVAPANADNASPKPAMSAVSLSGDGQNQLVLSAPVKGGLGIWDTEYALSDFKLSVPAGQLPGSYVSNLTWQLSNAPQ | not soluble |
| MGSDKIHHHHHHAASITLPSGYTKNAVIKWNQTGKASKALINASKKGMMENTNSDAGSDNTLVNVTKLTNSQKVELSKYTLSLINSARSQLGKKPWTYRSGALRFADRVANQYYTHNKSCWDPDHYVAGILRAAKASGLNSNAGQVYEDEAGLPISSQYGSNLRTMSVLKNQIYFNVKQMLFGGFAGSDSQMNDSSRYTEWEHAGDLLGCRTKNYDAKTKYFGVSFSGLKDDQSKISVHMIGVAKRYIQNYKKFNH | not soluble |
| MGSDKIHHHHHHACSLQQYQTKIVANNNYGIYQSLTRKGPVRQMGVTGTFKYSHFQASSVKKIKHNTYWYVLINGHKAGWVNQSAFARNKISVAKRVSLVKNPYYDFNVKDAINYVTDSSGSVVDLDKVHVSQNTVSSAKAGIHNITYTYGKGKAHSLIRVRNDQYEGIVNANKKPQMGKSGVTWFKHFKTSGNWGKGSSYAPETKPHVLKNGNFKLKTVFYQPATLSQGDSKLGVVGPLPEGLAVSDGRMYATMYDRPTRTHAHIVSYQLNQIPNRYVMQKLPWLPWPEFARLSATIKVSPLIKLGHGQAISTSKKYIYVIANNHLLRNNPESEEIMQISKNDLQIKKIWTFKIWDQKSEYGRYVHNAVFLNDHKFIAVYHSSTMNRFEYWEVTRHGNSWYPKEIGATKGEFMRNNSPVQGIAYDKHKKQIYLAFNDYLFKLNRKGRVIENGHFNTGREFEGICVDNKTFYAELAQRPELLKQKLK | not soluble |
| MGSDKIHHHHHHACTDGINETVISAYQLPVLPEPSYKFSRNGESSVNVLECGFLKSPIDRIFSEYMNEARMSTKRDYDEALRIYHEGNFGLKPQKEVSASSKHLKDRDKILKDIDAWFETSARIAGLGANIPSYEHRNREAVKGLTGYVGNGIGDKDICYVDERGIAVAEVYKYAIMGAIYLDKILNIHLSEQILENNEVLVRNDLTQLLPGHNYTELEHHWDLAYGYYDFWKTLAQSDGLPALKDCHLRISRSFVKGRALMTTSQYDEMRLQADTIRQELSRVVAVRAMHLLVGPNTLANLKENPRRAFRLLSQAYGLIYAAQFARNMEGKSFLTNEETGILLHELEKGDGLWDKERLLGREQTEGALYNLAVRIGEKFDVSPEDIKK | not soluble |
| MGSDKIHHHHHHADKHDHKGQTPLVEVDGNFLYKEDLQAVLPAGLSKDDSLLFAEHYVRSWVEDVLLFNQAQSNIPDNGEIDKLVENYRKALIMHTYQQELISQKLSGEIPEQEIADYYEKNKELFKLDRPLMKGLFIKVPLTAPQLGNVRKWYKTETQDAVEHLEKYSLQNAVKYEYFYDKWVRVADVLDMIPLKAESPEAYMDKNRHIELKDTAFYYFLNISDFRVAGEQEPYEFAQPKVKDMLVNIKRVDFMKQVKDDLYERAVKRKKIINY | not soluble |
| MGSDKIHHHHHHAEITLLKQDPQAGDPLSRLNFTVGGSIRPQFNMMTGDGDKGSYKRNGFDGGTRFRFAADYYLFDDISWISYYELGVNIPALFDWDNHYAEGANNTTRRMLYTGLKSDTWGTLTYGQQNSIYYDVVGVKTDIWDYDMIGQAPGNGINGDYDGSYRSRNMLKYKKTVGDVDLYGSYLFEDSEYLPGNGLRYKRKGGGSVGADYHIMKDLTWGTAWNYTRAEMRDPSSADSKTYDQNIVGTALSWTPDNWTFSFGGGWYQNFLTTKKTDVHNYFAGDAWGIEYFAGYKFPINQYAVKSIQPYFMGDRLEYVNGRNYQRIDNGLGISFQLDYGFRVDYEHVFTSSTDNLGDMNLVRLRYDF | not soluble |
